Data published in doi:10.1101/2025.11.17.688911 (2025).

Target: surface-immobilized biotinylated microtubules (pig, UniProt Q2XVP4 1-451; Q767L7 1-444, biotin (site not stated) | biotin (site not stated))
Sequence (Q2XVP4 whole entry, chain 1 of 2): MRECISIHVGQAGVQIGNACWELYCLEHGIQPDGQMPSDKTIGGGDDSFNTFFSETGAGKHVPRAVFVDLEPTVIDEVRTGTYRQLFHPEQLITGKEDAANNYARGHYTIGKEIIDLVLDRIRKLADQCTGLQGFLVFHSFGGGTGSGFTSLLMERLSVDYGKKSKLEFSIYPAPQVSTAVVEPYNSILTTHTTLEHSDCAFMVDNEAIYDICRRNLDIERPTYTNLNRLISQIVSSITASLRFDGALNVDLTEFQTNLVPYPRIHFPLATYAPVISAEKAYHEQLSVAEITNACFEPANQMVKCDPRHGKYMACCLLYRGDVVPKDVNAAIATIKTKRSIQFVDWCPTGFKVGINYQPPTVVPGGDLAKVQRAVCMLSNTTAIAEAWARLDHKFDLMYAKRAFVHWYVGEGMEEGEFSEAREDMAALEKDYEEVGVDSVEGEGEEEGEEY
Sequence (Q767L7 other isoform, or with tags, fused parts or gaps, chain 2 of 2): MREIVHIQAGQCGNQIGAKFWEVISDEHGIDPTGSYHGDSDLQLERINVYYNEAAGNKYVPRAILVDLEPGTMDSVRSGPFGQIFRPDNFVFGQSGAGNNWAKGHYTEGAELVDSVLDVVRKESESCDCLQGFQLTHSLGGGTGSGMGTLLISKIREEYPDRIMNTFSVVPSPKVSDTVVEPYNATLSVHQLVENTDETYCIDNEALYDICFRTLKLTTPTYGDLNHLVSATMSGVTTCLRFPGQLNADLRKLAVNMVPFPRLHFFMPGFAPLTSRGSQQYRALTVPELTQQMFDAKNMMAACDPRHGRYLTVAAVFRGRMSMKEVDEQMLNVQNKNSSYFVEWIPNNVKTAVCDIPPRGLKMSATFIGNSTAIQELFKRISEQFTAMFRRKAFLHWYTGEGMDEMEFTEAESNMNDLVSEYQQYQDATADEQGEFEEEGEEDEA

B1: MAP9-MTBD (Human MAP9 (302–647)::GFP::strepII) (domain or fragment)
chain: SKESQVTADDLEEEKAKAELIMDDDRTVDPLLSKSQSILISTSATASSKKTIEDRNIKNKKSTNNRASSASARLMTSEFLKKSSSKRRTPSTTTSSHYLGTLKVLDQKPSQKQSIEPDRADNIRAAVYQEWLEKKNVYLHEMHRIKRIESENLRIQNEQKKAAKREEALASFEAWKAMKEKEAKKIAAKKRLEEKNKKKTEEENAARKGEALQAFEKWKEKKMEYLKEKNRKEREYERAKKQKEEETVAEKKKDNLTAVEKWNEKKEAFFKQKEKEKINEKRKEELKRAEKKDKDKQAINEYEKWLENKEKQERIERKQKKRHSFLESEALPPWSPPSRTVFAKVF
  Kd: 43 nM
